US20230279087A1 (INFLARX, published 2023)

T1: recombinant human C5a (human, UniProt P01031 678-751)
T1 sequence: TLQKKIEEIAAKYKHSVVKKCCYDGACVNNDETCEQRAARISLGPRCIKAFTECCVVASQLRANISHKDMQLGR


Tests used:
[1] = molecular target: T1, recombinant human C5a; assay: cell-based or functional assay
[2] = molecular target: T1, recombinant human C5a; assay: ELISA on C5a (ABZENA), 0-100 ng/mL antibody

Binder | relative blocking activity on rhC5a-induced CD11b upregulation on granulocytes in human whole blood (flow cytometry MFI), 16.7 nM rhC5a, Ag:Ab 1:1, IFX-1 set to 100% [lower graph] [1] | Relative EC50 [2] | relative blocking activity on rhC5a-induced CD11b upregulation on granulocytes in human whole blood (flow cytometry MFI), 16.7 nM rhC5a, Ag:Ab 1:1, IFX-1 set to 100% [upper graph] [1]
VH4Vk3 (IFX-2 clone) (antibody, IgG4, Humanized IgG4 (S241P) / kappa; also called VH4/Vκ3; not shown: human kappa light chain constant domain) heavy: not shown light: DIQLTQSPSSLSASVGDRVTITCKASQSVDYDGDSYMKWYQQKPGKAPKLLIYAASNLQSGIPSRFSGSGSGTDFTLTISSLQPEDFATYYCQQSNEDPYTFGQGTKLEIK | 102% | 0.91 relative to IFX-1 (VH0Vk0) | –
VH5Vk3 (IFX-2 clone) (antibody, IgG4, Humanized IgG4 (S241P) / kappa; also called VH5/Vκ3; not shown: human kappa light chain constant domain) heavy: not shown light: DIQLTQSPSSLSASVGDRVTITCKASQSVDYDGDSYMKWYQQKPGKAPKLLIYAASNLQSGIPSRFSGSGSGTDFTLTISSLQPEDFATYYCQQSNEDPYTFGQGTKLEIK | – | 1.14 relative to IFX-1 (VH0Vk0) | 96%
VH3Vk2 (IFX-2 clone) (antibody, IgG4, V domains shown, Humanized IgG4 (S241P) / kappa; also called VH3/Vκ2; not shown: human kappa light chain constant domain) VH: QVQLVQSGAEVKKPGASVKVSCKASGYSFTTFWMDWVRQAPGQGLEWIGRIDPSDSESRLDQRFKDRATLTVDKSTSTVYMELSSLRSEDTAVYYCARGNDGYYGFAYWGQGTLVTVSS VL: DIVLTQSPASLSASVGDRVTITCKASQSVDYDGDSYMKWYQQKPGKAPKLLIYAASNLQSGIPSRFSGSGSGTDFTLTISSLQPEDFATYYCQQSNEDPYTFGQGTKLEIK | – | 1.05 relative to IFX-1 (VH0Vk0) | 96%
VH3Vk4 (IFX-2 clone) (antibody, IgG4, V domains shown, Humanized IgG4 (S241P) / kappa; also called VH3/Vκ4; not shown: human kappa light chain constant domain) VH: QVQLVQSGAEVKKPGASVKVSCKASGYSFTTFWMDWVRQAPGQGLEWIGRIDPSDSESRLDQRFKDRATLTVDKSTSTVYMELSSLRSEDTAVYYCARGNDGYYGFAYWGQGTLVTVSS VL: DIQMTQSPSSLSASVGDRVTITCKASQSVDYDGDSYMKWYQQKPGKAPKLLIYAASNLQSGVPSRFSGSGSGTDFTLTISSLQPEDFATYYCQQSNEDPYTFGQGTKLEIK | 103% | 0.86 relative to IFX-1 (VH0Vk0) | –
VH2Vk3 (IFX-2 clone) (antibody, IgG4, V domains shown, Humanized IgG4 (S241P) / kappa; also called VH2/Vκ3; not shown: human kappa light chain constant domain) VH: QVQLVQSGAEVKKPGASVKISCKASGYSFTTFWMDWVKQAPGQGLEWIGRIDPSDSESRLDQRFKDRATLTVDKSTSTVYMELSSLRSEDTAVYYCARGNDGYYGFAYWGQGTLVTVSS VL: DIQLTQSPSSLSASVGDRVTITCKASQSVDYDGDSYMKWYQQKPGKAPKLLIYAASNLQSGIPSRFSGSGSGTDFTLTISSLQPEDFATYYCQQSNEDPYTFGQGTKLEIK | – | 1.09 relative to IFX-1 (VH0Vk0) | –
VH2Vk4 (IFX-2 clone) (antibody, IgG4, V domains shown, Humanized IgG4 (S241P) / kappa; also called VH2/Vκ4; not shown: human kappa light chain constant domain) VH: QVQLVQSGAEVKKPGASVKISCKASGYSFTTFWMDWVKQAPGQGLEWIGRIDPSDSESRLDQRFKDRATLTVDKSTSTVYMELSSLRSEDTAVYYCARGNDGYYGFAYWGQGTLVTVSS VL: DIQMTQSPSSLSASVGDRVTITCKASQSVDYDGDSYMKWYQQKPGKAPKLLIYAASNLQSGVPSRFSGSGSGTDFTLTISSLQPEDFATYYCQQSNEDPYTFGQGTKLEIK | – | 0.99 relative to IFX-1 (VH0Vk0) | –
VH5Vk1 (IFX-2 clone) (antibody, IgG4, V domains shown, Humanized IgG4 (S241P) / kappa; also called VH5/Vκ1; not shown: human kappa light chain constant domain) VH: QVQLVQSGAEVKKPGASVKVSCKASGYSFTTFWMDWVRQAPGQGLEWMGRIDPSDSESRLDQKFKDRVTMTVDKSTSTVYMELSSLRSEDTAVYYCARGNDGYYGFAYWGQGTLVTVSS VL: DIVLTQSPASLAASVGDRVTITCKASQSVDYDGDSYMKWYQQKPGKAPKLLIYAASNLQSGIPSRFSGSGSGTDFTLTISSLQEEDFATYYCQQSNEDPYTFGQGTKLEIK | 101% | 1.28 relative to IFX-1 (VH0Vk0) | –
VH5Vk2 (IFX-2 clone) (antibody, IgG4, Humanized IgG4 (S241P) / kappa; also called VH5/Vκ2; not shown: human kappa light chain constant domain) heavy: not shown light: DIVLTQSPASLSASVGDRVTITCKASQSVDYDGDSYMKWYQQKPGKAPKLLIYAASNLQSGIPSRFSGSGSGTDFTLTISSLQPEDFATYYCQQSNEDPYTFGQGTKLEIK | 103% | 1.05 relative to IFX-1 (VH0Vk0) | –
VH5Vk4 (IFX-2 clone) (antibody, IgG4, V domains shown, Humanized IgG4 (S241P) / kappa; also called VH5/Vκ4; not shown: human kappa light chain constant domain) VH: QVQLVQSGAEVKKPGASVKVSCKASGYSFTTFWMDWVRQAPGQGLEWMGRIDPSDSESRLDQKFKDRVTMTVDKSTSTVYMELSSLRSEDTAVYYCARGNDGYYGFAYWGQGTLVTVSS VL: DIQMTQSPSSLSASVGDRVTITCKASQSVDYDGDSYMKWYQQKPGKAPKLLIYAASNLQSGVPSRFSGSGSGTDFTLTISSLQPEDFATYYCQQSNEDPYTFGQGTKLEIK | – | 1.53 relative to IFX-1 (VH0Vk0) | 94%
VH4Vk1 (IFX-2 clone) (antibody, IgG4, V domains shown, Humanized IgG4 (S241P) / kappa; also called VH4/Vκ1; not shown: human kappa light chain constant domain) VH: QVQLVQSGAEVKKPGASVKVSCKASGYSFTTFWMDWVRQAPGQGLEWIGRIDPSDSESRLDQRFKDRVTMTVDKSTSTVYMELSSLRSEDTAVYYCARGNDGYYGFAYWGQGTLVTVSS VL: DIVLTQSPASLAASVGDRVTITCKASQSVDYDGDSYMKWYQQKPGKAPKLLIYAASNLQSGIPSRFSGSGSGTDFTLTISSLQEEDFATYYCQQSNEDPYTFGQGTKLEIK | – | 1 relative to IFX-1 (VH0Vk0) | 98%
VH4Vk2 (IFX-2 clone) (antibody, IgG4, Humanized IgG4 (S241P) / kappa; also called VH4/Vκ2; not shown: human kappa light chain constant domain) heavy: not shown light: DIVLTQSPASLSASVGDRVTITCKASQSVDYDGDSYMKWYQQKPGKAPKLLIYAASNLQSGIPSRFSGSGSGTDFTLTISSLQPEDFATYYCQQSNEDPYTFGQGTKLEIK | 104% | 0.86 relative to IFX-1 (VH0Vk0) | –
VH4Vk4 (IFX-2 clone) (antibody, IgG4, V domains shown, Humanized IgG4 (S241P) / kappa; also called VH4/Vκ4; not shown: human kappa light chain constant domain) VH: QVQLVQSGAEVKKPGASVKVSCKASGYSFTTFWMDWVRQAPGQGLEWIGRIDPSDSESRLDQRFKDRVTMTVDKSTSTVYMELSSLRSEDTAVYYCARGNDGYYGFAYWGQGTLVTVSS VL: DIQMTQSPSSLSASVGDRVTITCKASQSVDYDGDSYMKWYQQKPGKAPKLLIYAASNLQSGVPSRFSGSGSGTDFTLTISSLQPEDFATYYCQQSNEDPYTFGQGTKLEIK | – | 1.03 relative to IFX-1 (VH0Vk0) | 102%
IFX-1 (VH0/Vκ0), chimeric anti-human C5a IgG4 antibody (antibody, V domains shown, also called VH0Vk0; VH0Vk0 (IFX-1); not shown: human kappa light chain constant domain) VH: QVQLQQSGPQLVRPGTSVKISCKASGYSFTTFWMDWVKQRPGQGLEWIGRIDPSDSESRLDQRFKDRATLTVDKSSSTVYMQLSSPTSEDSAVYYCARGNDGYYGFAYWGQGTLVTVSS VL: DIVLTQSPASLAVSLGQRATISCKASQSVDYDGDSYMKWYQQKPGQPPKLLIYAASNLQSGIPARFSGSGSGTDFTLNIHPVEEEDAATYYCQQSNEDPYTFGGGTKLEIK | – | 1 relative to IFX-1 (VH0Vk0) | –
